B1: Cst-I O:19: α-2,3-sialyltransferase Cst-I from Campylobacter jejuni strain O:19, amino acid sequence of FIG. 3, SEQ ID NO:8 (protein, listed as Campylobacter jejuni)
chain: MTRTRMENELIVSKNMQNIIIAGNGPSLKNINYKRLPREYDVFRCNQFYFEDKYYLGKKIKAVFFNPGVFLQQYHTAKQLILKNEYEIKNIFCSTFNLPFIESNDFLHQFYNFFPDAKLGYEVIENLKEFYAYIKYNEIYFNKRITSGVYMCAIAIALGYKTIYLCGIDFYEGDVIYPFEAMSTNIKTIFPGIKDFKPSNCHSKEYDIEALKLLKSIYKVNIYALCDDSILANHFPLSININNNFTLENKHNNSINDILLTDNTPGVSFYKNQLKADNKIMLNFYNILHSKDTLIKFLNKEIAVLKKQTTQRAKARIQNHLSYKLGQALIINSKSVLGFLSLPFIILSIVISHKQEQKAYKFKVKKNPNLALPPLETYPDYNEALKEKECFTYKLGEEFIKAGKNWYGEGYIKFIFKDVPRLKREFEKGE
modifications: sialyltransferase polypeptide sequence from strain O19
B2: Cst-I O:36: α-2,3-sialyltransferase Cst-I from Campylobacter jejuni strain O:36, amino acid sequence of FIG. 2, SEQ ID NO:6 (protein, listed as Campylobacter jejuni)
chain: MTRTRMENELIVSKNMQNIIIAGNGPSLKNINYKRLPREYDVFRCNQFYFEDKYYLGKKIKAVFFNPGVFLQQYHTAKQLILKNEYEIKNIFCSTFNLSFIESNDFLHQFYNFFPDAKLGYEVIENLKEFYAYIKYNEIYFNKRITSGVYMCAIAIALGYKTIYLCGIDFYEGDVIYPFEAMSTNIKTIFPGIKDFKPSNCHSKEYDIEALKLLKSIYKVNIYALCDDSILANHFPLSININNNFTLENKHNNSINDILLTDNTPGVSFYKNQLKADNKIMLDFYNILHSKDNLIKFLNKEIAVLKKQTTQRAKTRIQNHLSYKLGQALIINSKSVLGYLSLPFIILSIVISHKQEQKAYKFKVKKNPNLALPPLETYPDYKEALKEKECFTYKLGEEFIKASKNWYGGGYIKFYFKDVSRLKREIKEK
modifications: sialyltransferase polypeptide sequence from strain O36

Assay: α-2,3-sialyltransferase activity assay with capillary electrophoresis detection
Type: biochemical
Details: lysates of E. coli expressing the Cst-I protein; for sialyltransferase activity: acceptor 1 mM Lac-FCHASE, donor 0.2 mM CMP-Neu5Ac, 37° C., pH 7
Method: Assays. Protein concentration was determined using the bicinchoninic acid protein assay kit (Pierce, Rockford, Ill.). For all of the enzymatic assays, one unit of activity was defined as the amount of enzyme that generated one […] of product per minute. FCHASE-labelled oligosaccharides are prepared as described in Gilbert et al. (1997) Eur. J. Biochem. 249: 187-194. p-Nitrophenol-glycosides (p-NP-glycosides) were obtained from Sigma-Aldrich.
The -2,3-sialyltransferase activity was assayed at 37° C. using 1 mM Lac-FCHASE (6-(5-fluorescein-carboxamido)-hexanoic acid succimidyl ester), 0.2 mM CMP-Neu5Ac, 50 mM MOPS pH 7, 10 mM MnCl2 and 10 mM MgCl2 in a final volume of 10 μL. After 5 min the reaction mixtures with fluorogenic acceptors were diluted with 10 mM NaOH and analyzed by capillary electrophoresis performed using the separation conditions as described previously (Gilbert et al. (1997) supra.).

| Molecule | transfer of Neu5Ac from CMP-Neu5Ac to an acceptor | sialyltransferase activity [mU/ml] |
| --- | --- | --- |
| B1 | catalyze the transfer of Neu5Ac from CMP-Neu5Ac to an acceptor | 324.9 |
| B2 | catalyze the transfer of Neu5Ac from CMP-Neu5Ac to an acceptor | 50.3 |

From patent US20090215115A1, “SIALYLTR[…] SEQUENCE MOTIFS” (National Research Council of Canada, priority 2004, published 2009)
